Experimental data from the nanobody polyreactivity screen of Harvey et al. (2022).

assay: yeast display, Sf9 membrane polyspecificity reagent, FACS + sequencing; frameworks hold sequencing errors
How it was run: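 Sorting gates, low and high (top ~1%), were placed on anti-HA fluorescence to track expression and on streptavidin fluorescence to track reagent binding. A clone's polyreactivity label is taken from the gate it came out of. The reagent was 10% biotinylated, detergent-solubilized Sf9 membrane, applied for 1 hour at 4 °C to galactose-induced yeast display cells.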

Sequence	polyreactivity (PSR sort gate)
QVQLVESGGGLVQAGGSLRLSCAASGSIFSGNAMGWYRQAPGKERELVAAISRNGGSTYYADSVKGRFTISRDNAMNTVYLQMISLKPEDTAVYYCAASWYRRKIYYSWGQGTQVTVSS	high polyreactivity
QVQLVESGGGLVQAGGSLRLSCAASGSIFSGNVMGWYRPAPGKERELVAAISGRGGSTYYPDSVKGRFTISRDNAKNTVFLQMNSRNPVDTAVYECAAVYLKTYYWGQGTQVTVSS	high polyreactivity
QVQLVESGGGLVQAGGSLRLSCAASGSIFSGWYTMGWYRQAPWKERELVASISISTTDTYYADSVKGRFTISRDNAKNTVYVQMNSLKPEDTAVYYCAASGWDHVIVEYDYWGQGTQVTVSS	low polyreactivity
QVQLVESGGGLVQAGGSLRLSCAASGSIFSGYVMGWYRQAPGKERELVAAIDNSSGSTYYADSVKGRFTISRDNAKNTVYLQMNSLKPEDTAVYYCAADYYSKAYSEYDYWGQGTQVTVSS	low polyreactivity
QVQLVESGGGLVQAGGSLRLSCAASGSIFSHYVMGWYRQAPGKERELVAAISRSGGTTYYADSVKGRFTISRDNAKNTVYLQMNSLKPEDTAVYYCNVRGEPYPYYDGYEYDYWGQGTQVTVSS	low polyreactivity
QVQLVESGGGLVQAGGSLRLSCAASGSIFSIYAMGWYRQAPGKERELVAAIDSGTSTTYADSVKGRFTISRDNAKNTVYLQMNSLKPEDTAVYYCAAALYSDVAAVATYVYYWGQGTQVTVSS	low polyreactivity
QVQLVESGGGLVQAGGSLRLSCAASGSIFSIYAMGWYRQAPGKERELVASITRSSGRTYYADSVKGRFTISRDNAKNTVYLQMNSLKPEDTAVYYCNAVWNTFISGRSYDYWGQGTQVTVSS	low polyreactivity
QVQLVESGGGLVQAGGSLRLSCAASGSIFSKNAMGWYRQAPGKERELVAAISWSGDRTYYADSVKGRFTISRDNAKNTVYLQMNSLKPEDTAVYYCAADYTVKYGYWGQGTQVTVSS	high polyreactivity
QVQLVESGGGLVQAGGSLRLSCAASGSIFSKYAMGWYRQAPGKERELVAAISISDGNTYYADSVKGRFTISRDNAKNTVYLQMNSLKPEDTAVYYCATVGSEDGDPGFDYWGQGTQVTVSS	low polyreactivity
QVQLVESGGGLVQAGGSLRLSCAASGSIFSKYVMGWYRQAPGKERELVAAISWSGTRTYYADSVKGRFTISRDNAKNTVYLQMNSLKPEDTAVYYCAARRPVRVPGQYDYWGQGTQVTVSS	high polyreactivity
QVQLVESGGGLVQAGGSLRLSCAASGSIFSNNAMGWYRQAPGKEREFVAAIRGRGTRAYYADSVKGRFTISRDNAKNTVYLQMNSLKPEDTAVYYCAASARTYVQSGYWGQGTQVTVSS	high polyreactivity
QVQLVESGGGLVQAGGSLRLSCAASGSIFSPNAMGWYRQAPGKERELVAAISRGDSTYYADSVKGRFTISRDNAKNTVYLQMNSLKPEDTAVYYCAATYLRRPVSGAYRSEYNYWGQGTQVTVSS	high polyreactivity
QVQLVESGGGLVQAGGSLRLSCAASGSIFSPNAMGWYRQAPGKERQLVAAIRSGGSTYYADSVKGRFTISRDNAKNSVYLQMNSLKPADTAVYYCAADTYTYYYYLARYYYWGQGTQVTVSS	low polyreactivity
QVQLVESGGGLVQAGGSLRLSCAASGSIFSPYAMGWYRQAPGKERELVAAISWTGGRTYYADSVKGRFTISRDNAKNTVYLQMNSLKPEDTAVYYGAAAYYGTRPYGYWGQGTQVTVSS	high polyreactivity
QVQLVESGGGLVQAGGSLRLSCAASGSIFSPYAMGWYRQAPGKERELVAAITDSGGSTYYADSVKGRFTISRDNAKYTVYLQMNSLKPEDTAVYYCAADLRYWSWAFDYWGQGTQVTVSS	low polyreactivity
QVQLVESGGGLVQAGGSLRLSCAASGSIFSPYTMGWYRQAPGKERELVAAMSASGGSTYYADSVKGRFTISRDNAKNTVYLQMNSLKPEDTAVYYCNVYRITRHSYNCGFDYWGQGTQVTVSS	low polyreactivity
QVQLVESGGGLVQAGGSLRLSCAASGSIFSQYAMGWYRQAPGKERELVAAITYGGGSTYYADSVKGRFTISRDNAKNTVYFQMNSLKPEDTAVYYCAKEFKYWGYPYDYWGQGTQVTVSS	low polyreactivity
QVQLVESGGGLVQAGGSLRLSCAASGSIFSQYAMGWYRQAPGKERELVDAITYGGGSTYYADSVKGRFTISRDNAKNTVYLQMNSLKPEDTAVYYCNADGWNTYIGPRRYRYDYWGQGTQVTVSS	low polyreactivity
QVQLVESGGGLVQAGGSLRLSCAASGSIFSRIAMGWYRKAPGKERELVAAISGRGGSTYYADSVKGRFTISRDNAKNTVYLHMKSLKPEDTAVYYCAKAVNYRLSQAMDYWGQGTQVTVSS	high polyreactivity
QVQLVESGGGLVQAGGSLRLSCAASGSIFSRNAMGWYRQAPGKEREFVAAISWSGGRTYYADSVKGRFTISRDNAKNTVYLQMNSLKPEDTAVYYCSKGYSYHWYHVTFYSWGQGTQVTVSS	high polyreactivity
QVQLVESGGGLVQAGGSLRLSCAASGSIFSRNAMGWYRQAPGKEREFVARISWSSTSTNYADSVKGRFTISRDNAKNPVYLQMNSLKPEDTAVYYCAADFRGDRRFDYWGQGTQVTVSS	low polyreactivity
QVQLVESGGGLVQAGGSLRLSCAASGSIFSRNAMGWYRQAPGKERELVAAISRRGGSTYYADSVKGRFTISRDNAKITVYLQMNSLKPEDTAVYYCAAPFEAVRSYYWGQGTQVTVSS	high polyreactivity

Sequence	polyreactivity (PSR sort gate)
QVQLVESGGGLVQAGGSLRLSCAASGSIFSRNAMGWYRQAPGKERELVASMSWRGGSTNYADSVKGRFTISRDNAKNTVYLQMNSLKPEDTAVYYCNAPYRHQPGGGYWGQGTQVTVSS	low polyreactivity
QVQLVESGGGLVQAGGSLRLSCAASGSIFSRNVMGGSRQAPGKERELVAAITGSGGRTYYADSVKGRFTISRDNAKNTVYLQMNSLKPEDTAVYYCAKSRPGPYDYWGQGTQVTVSS	high polyreactivity
QVQLVESGGGLVQAGGSLRLSCAASGSIFSRYAMGWYRQAPGKEMELVAAISSRGGSTSYADSVKGRFTISRDYAKNTVYLQMNSLQPEDTAVYYCGRVYYAGPRLYRDFGFDYWGQGTQVTVSS	high polyreactivity
QVQLVESGGGLVQAGGSLRLSCAASGSIFSRYAMGWYRQAPGKERELVAAISKSGGTTYYADSVKGRFTISRDNAKNTVYLQMNSLKPEDTAVYYCNAKRYRNGSIGMGYWGQGTQVTVSS	high polyreactivity
QVQLVESGGGLVQAGGSLRLSCAASGSIFSRYTMGWYRQAPGKERELVARINSSGTSTYYADSVQGRFTIARDNAKNTVYLQMNSLKPEDTAVYYCAAQVDTQYWDFDYWGQGTQVTVSS	low polyreactivity
QVQLVESGGGLVQAGGSLRLSCAASGSIFSRYTMGWYRQATGKERELVAAITSSGGSTYYADSVKGRFTISRDNAKNTVYLQMNSLKPEDTAVYYCNAVRRQWYWTAWFSARGYGYWGQGTQVTVSS	high polyreactivity
QVQLVESGGGLVQAGGSLRLSCAASGSIFSRYTMGWYRQPPGKERELVAAITSSGGRTYYADSVKGRFRISRDNAKNTVYLQLNSLKPVVTAVYYCAARIQKQQGYGYWGQGTQVTVSS	high polyreactivity
QVQLVESGGGLVQAGGSLRLSCAASGSIFSSNAMGWYRQAPGKERELVAAISRRGGSTYYADSVKGRFTISRDNAKNTVYLQMNSLKPEDTAVYYCNAYPWLLSTRYDYWGQGTQVTVSS	high polyreactivity
QVQLVESGGGLVQAGGSLRLSCAASGSIFSSNAMGWYRQAPGKERELVAAISSSGSRTYYADSVKGRFTISRDNAKNTVYLQMNSLKPEDTAVYYCAAVIRYTRSYDYWGQGTQVTVSS	high polyreactivity
QVQLVESGGGLVQAGGSLRLSCAASGSIFSSNVMGWYRQAPGKERELVAAITVRGSRTYYADSVKGRFTISRDNAKNTVYLQMNSLKPEDTAVYYCNAVARVLGSDRRLQYYYWGQGTQVTVSS	high polyreactivity
QVQLVESGGGLVQAGGSLRLSCAASGSIFSSYAMGWYRQAPGKERELVAAISGSGGSTFYADSVKGRFTISRDNAKNTVYLQMNSLKPEDTAVYYCAARYYWYGRAGKKHASYYYWGQGTQVTVSS	high polyreactivity
QVQLVESGGGLVQAGGSLRLSCAASGSIFSSYAMGWYRQAPGKERELVAAISQNGGSTDYADSVKGRFTISRDKAKNTVYLQMNSLKPEDTAVYYCNAYSVYVRGEYWGQGTQVTVSS	high polyreactivity
QVQLVESGGGLVQAGGSLRLSCAASGSIFSSYAMGWYRQAPGKERELVAAITRTGGRTYYADSVKGRFTISRDNAKNTVYLQMNSLKPEDTAVYYCAAKQVSRGVAAYDYWGQGTQVTVSS	high polyreactivity
QVQLVESGGGLVQAGGSLRLSCAASGSIFSSYVMGWYRQAPGKERELVAAISRSGGSTYYADSVKGRFTISRDNAKNTVYLQMNSRKPEDTAFYYCAADWTRGSPGMDYWGQGTQVTVSS	high polyreactivity
QVQLVESGGGLVQAGGSLRLSCAASGSIFSSYVMVWYRQAPGKERELVAAISSSGGSTYYADSVKGRFTISRDNAKNTVYLQMNSLKPEDTAVYYCAARSYYSYYLMYYWGQGTQVTVSS	high polyreactivity
QVQLVESGGGLVQAGGSLRLSCAASGSIFSTYAMGWYRQAPGKERELVAAIRTWSGGRTYYADSVKGRFTISRDNAKNTVYLQMNSLKPEDTAVYYCAAQFSRYRDYGLNYYYWGQGTQVTVSS	high polyreactivity
QVQLVESGGGLVQAGGSLRLSCAASGSIFSTYAMGWYRQAPGKERELVAAISRSGGSTYYADSVKGRFTISRDNAKNTVFLQMNSLKPEDTAVYYCAKVGRRQRYDYWGQGTQVTVSS	high polyreactivity
QVQLVESGGGLVQAGGSLRLSCAASGSIFSTYAMGWYRQAPGKERELVAAISSSSGSTYYADSVKGRFTISRDNAKNTVYLQMNSLKPEDTAVYYCAAAYSQYSTSYYYWGQGTQVTVSS	high polyreactivity
QVQLVESGGGLVQAGGSLRLSCAASGSIFSTYVMVWYRQAPGKERELVAAITVSVGSTYYADSVKGRFTISRDNAKNTVYLQMNSLKPEDTAVYYCAAYGGTGYPFDAYYHDYDYWGQGTQVTVSS	low polyreactivity
QVQLVESGGGLVQAGGSLRLSCAASGSIFSVYAMGWYRQAPGKERELVAAISRGDSTYYADSVKGRFTISRDNAKNTVYLQMNSLKPEDTAVYYCAKAYLRYYDGPYDYWGQGTQVTVSS	low polyreactivity
QVQLVESGGGLVQAGGSLRLSCAASGSIFSVYAMGWYRQAPGKERELVAAITRGGNTYYADSVKGRFTISRDNAKNTVYLQMNSLKPEDTAVYYCNAGPYGRFYYRGLGYWGQGTQVTVSS	low polyreactivity
